Data as given in patent publication CN110498854A (UNIV ARMY MEDICAL, dated 2019).

Assays:
金黄色葡萄球菌肠毒素B (SEB) [1] = target: T1, 金黄色葡萄球菌肠毒素B (SEB) (Staphylococcus aureus (ATCC BAA-1556), UniProt P01552 28-266)
金黄色葡萄球菌肠毒素B (SEB) [2] = target: T1, 金黄色葡萄球菌肠毒素B (SEB); assay: ELISA, antigen coated

T1 sequence (P01552 28-266, tags left off): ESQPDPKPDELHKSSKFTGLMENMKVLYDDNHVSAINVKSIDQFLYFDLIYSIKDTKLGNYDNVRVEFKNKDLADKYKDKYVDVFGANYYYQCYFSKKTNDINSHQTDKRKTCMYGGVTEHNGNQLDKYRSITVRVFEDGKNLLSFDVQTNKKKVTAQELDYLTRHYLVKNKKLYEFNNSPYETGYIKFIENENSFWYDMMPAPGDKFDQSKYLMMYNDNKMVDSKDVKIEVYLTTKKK

B1: 全人源SEB单克隆抗体M0313 (antibody, V domains shown)
VH: EVQLVQSGGGLVQPGGSLRLSCAASGFTLSNYGMSWVRQSPGKGLEWVSGISGGSGSTCYADFVKGRFTISRDKSKNTLSLEMNSLRAEDRAVYYCAKDREYYNSGYYYFPYQYAMDVWGQGTTVTVSS
VL: QSVLTQPPSASGTPGQRVTISCSGGRPNIGGNSVYWYQQFPGTSPKLLIYTNDQRPSGVPDRFSGSKSGTSASLAISGLRSEDEADYYCAAWDDSLSAYVFGAGTKVTVL
B1 was tested, and the Kd (金黄色葡萄球菌肠毒素B (SEB) [1]) was 3.22 nM, the koff (金黄色葡萄球菌肠毒素B (SEB) [1]) was 0.00292 s⁻¹ and the kon (金黄色葡萄球菌肠毒素B (SEB) [1]) was 908000 M⁻¹ s⁻¹. The EC50 (金黄色葡萄球菌肠毒素B (SEB) [2]) was 7.3 ng/mL.
